# Laboratory results published in patent publication US10993998B2, “Determinants of cancer response to immunotherapy by PD-1 blockade” (Memorial Sloan Kettering Cancer Center, priority 2014, dated 2021).
# Columns and labels:
# CD8+ T-cells [1] = assay: Intracellular cytokine staining after re-stimulation with mutant or wild-type HERC1 peptide; format: cell-based, human; details: PBLs from day 63 and 297 expanded with mutant peptide, re-stimulated
# Protocol: HERC1 P>S mutant and wild type peptides of 9 amino acids in length (Mutant: […] (SEQ ID NO: 344), Wild type: […] (SEQ ID NO: 5925)) were synthesized (GenScript Piscataway, N.J.). 1.5×10^6 patient PBMCs were cultured with 1.5×10^6 autologous PBMCs pulsed with HERC1 P>S mutant peptide in RPMI media containing 10% pooled human serum (PHS), 10 mM HEPES, 2 mM L Glutamine, and 50 μM β-mercaptoethanol supplemented with IL-15 (10 ng/ml) and IL-2 (10 IU/ml), using methods previously described (59). […] Cells were then treated with 1× Brefeldin A and monensin (BioLegend) for 4 hours, and subsequently stained with 1 μL Alexa Fluor 405-CD3 (Invitrogen), 3 μL APC-H7-CD8 (BD Bioscience), and 1 μL ECD-CD4 (Beckman Coulter). Upon subsequent washing and permeabilization, the cells were stained with the following antibodies to intracellular cytokines: 3 μL Alexa Fluor 647-IFN-γ (Biolegend), 3 μL PE-MIP-1β, and 1 μL PE-Cy7-TNF-α (BD Pharmingen). Data were acquired by flow cytometry (using CYAN flow cytometer, Summit software, Dako Cytomation California Inc., Carpinteria, Calif.). Analysis was done by FlowJo version 10.1, TreeStar, Inc. CD3+ single cell lymphocytes were gated for analysis (SS vs. FS [low, mid], FS vs. Pulse Width [all, low], and CD3 vs. “dump” channel [high, low]).
# CD8+ T-cells [2] = assay: MHC multimer screening of neoantigen-specific CD8+ T-cells in serially collected peripheral blood lymphocytes of a pembrolizumab responder; format: cell-based, human
# Protocol: HLA-A restricted candidate neoantigens were synthesized in-house (Netherlands Cancer Institute) and HLA-multimers containing these peptides were produced by micro-scale parallel UV-induced peptide exchange reactions as previously described (26, 58). Briefly, peptide-MHC complexes loaded with UV-sensitive peptide were subjected to 366-nm UV light (CAMAG) for one hour at 4° C. in the presence of candidate neoantigen peptide in a 384-well plate. pMHC multimers were generated using a total of 11 different fluorescent streptavidin (SA) conjugates (Invitrogen). For each pMHC monomer, conjugation was performed with two of these fluorochromes. NaN3 (0.02% w/v) and an excess of D-biotin (26.4 mM, Sigma) were added to block residual binding sites. For T cell staining an combinatorial encoding strategy was employed to be able to analyze for reactivity against up to 47 different peptides in parallel (27). The PBMC samples were thawed, treated with DNAse for 1 h and stained with pMHC multimer panels for 15 min at 37 C. Subsequently, anti-CD8-AF700 (Invitrogen), anti-CD4-FITC (Invitrogen), anti-CD14-FITC (Invitrogen), anti-CD16-FITC (Invitrogen), anti-CD19-FITC (Invitrogen), and LIVE/DEAD Fixable IR Dead Cell Stain Kit (Invitrogen) were added for additional 20 min on ice. Data acquisition was performed on an LSR II flow cytometer (Becton Dickinson) with FACSDiva 6 software. Cutoff values for the definition of positive responses were ≥0.005% of total CD8+ cells and ≥10 events. For immunophenotypical analysis, day 44 PMLs were stained with HERC1 P3278S MHC multimers in two colors (qdot 625 (Invitrogen) and PerCPeFluor710 (ebioscience)) plus anti-CD45RA Ab (Invitrogen), anti-CCR7 Ab (BD Bioscience), anti-HLA-DR Ab (BD Bioscience), and anti-LAG-3 Ab (R&D systems). The immunophenotype of HERC1 P3278S reactive and bulk CD8+ T-cells were analyzed. Data were acquired using an LSR II flow cytometer (Becton Dickson) with FASCDiva 6 software.
# [3] = approximately 2000 patients; cited from earlier work
# [4] = system: stage IV non-small cell lung cancer (NSCLC) patients; details: 10 mg/kg every 2-3 weeks vs 2 mg/kg every 3 weeks; reference (6); cited from earlier work
# [5] = system: stage IV non-small cell lung cancer (NSCLC) patients; assay: Clinical efficacy of pembrolizumab in NSCLC patients (protocol NCT01295827), by tumor genomic subgroup; format: in vivo, human; details: for ORR: all 34
# Protocol: All patients had stage IV non-small cell lung cancer (NSCLC) and were treated at Memorial Sloan Kettering Cancer Center (n=29) or the University of California at Los Angeles (n=5) on protocol NCT01295827 (FIG. 17). All patients initiated therapy in 2012-2013 and were treated at 10 mg/kg every 2-3 weeks, except for 5 patients treated at 2 mg/kg every 3 weeks. The overall response rate and progression-free survival are reported to be similar across dose and schedules (6). All patients had consented to Institutional Review Board-approved protocols permitting tissue collection and sequencing. PD-L1 expression was assessed prospectively by immunohistochemistry using a previously validated murine anti-human anti-PD-L1 antibody (clone 22C3, Merck & Co., Inc.). Membranous expression of PD-L1 on tumor cells and infiltrating immune cells were scored. 31 (91%) scored at least 1% positive for PD-L1 expression; 2 patients were PD-L1 negative; and 1 was unknown. Smoking status was evaluated using previously completed self-reported smoking questionnaires executed as standard of care at MSKCC or review of medical records at UCLA.
# Per protocol, CT scans were performed every nine weeks. Partial and complete responses were confirmed by a repeat imaging occurring at least 4 weeks after the initial identification of response; unconfirmed responses were considered stable or progressive disease dependent on results of the second CT scan. Durable clinical benefit (DCB) was defined as stable disease or partial response lasting longer than 6 months (week 27, the time of third protocol-scheduled response assessment). No durable benefit (NDB) was defined as progression of disease ≤6 months of beginning therapy. Patients who were still ongoing study therapy at the time of the data lock (Oct. 10, 2014) but who had not yet reached 6 months of follow up were considered “Not reached” (NR). These patients were not included in the analysis of DCB/NDB, but were included in assessments of objective response and progression-free survival. For patients with ongoing response to study therapy, progression free survival was censored at the date of the most recent imaging evaluation. For alive patients, overall survival was censored at the date of last known contact.
# Mann-Whitney test was used to compare mutation burdens and differences in the frequency of nucleotide changes. The Log-Rank and Mantel-Haenszel tests were used to compare Kaplan-Meier survival curves. The proportion of objective responders/non-responders or DCB/NDB were compared using Fisher's Exact Test. The receiver operator characteristic (ROC) curve was generated by plotting the proportion of all DCB patients with mutation burden above any given cut point (sensitivity) against the proportion of the NDB patients that would also exceed the same cut point (1-specificity). The area under the curve and exact 95% confidence intervals are reported. Correlations between nonsynonymous mutation burden and neoantigen burden, neoantigen burden and best overall response, and frequency of neoantigen burden/nonsynonymous mutation and best overall response were calculated using Spearman correlation formula. Statistical analyses were performed using GraphPad Prism v.6 (Graphpad Prism Software, San Diego, Calif.).
# [6] = cited from earlier work
# [7] = discovery cohort, high nonsynonymous burden
# [8] = discovery cohort, low nonsynonymous burden
# [9] = validation cohort, nonsynonymous mutation burden above the median
# [10] = validation cohort, nonsynonymous mutation burden below the median
# [11] = 411 patients, Trial 1, all grades
substance,measurement,setting,value
ASNAPSAAK (listed as Homo sapiens) [synthesized 9 amino acid wild type HERC1 peptide],"polyfunctional CD8+ T-cells (IFNγ, CD107a, MIP113, TNFα production) in response to peptide",CD8+ T-cells [1],not
ASNASSAAK (listed as Homo sapiens) [synthesized 9 amino acid mutant HERC1 P>S neoantigen peptide],"polyfunctional CD8+ T-cells (IFNγ, CD107a, MIP113, TNFα production) in response to peptide",CD8+ T-cells [1],detected
same,HERC1 P3278S neoantigen-specific CD8+ T-cell response (MHC multimer+),CD8+ T-cells [2]; Day 44,0.044 % of Cd8+ T-cells
same,HERC1 P3278S neoantigen-specific CD8+ T-cell response (MHC multimer+),"CD8+ T-cells [2]; at start of therapy, level of detection",< 0.005%
same,HERC1 P3278S neoantigen-specific CD8+ T-cell response (MHC multimer+),CD8+ T-cells [2]; subsequent months as tumor regression plateaued,just above background
same,HERC1 P3278S neoantigen-specific CD8+ T-cell response (MHC multimer+),CD8+ T-cells [2]; within 3 weeks post therapy initiation,0.040 % of CD8+ T-cells
pembrolizumab,"additional immune-mediated adverse reactions, patients: myasthenic syndrome, optic neuritis, rhabdomyolysis",[3],less than 1%
same,overall response rate and progression-free survival across dose and schedules,[4],similar
same,median PFS,[5]; TH tumors,not reached
same,rate of DCB,[5]; TH tumors,77%
same,median PFS,[5]; TL tumors,3.5
same,rate of DCB,[5]; TL tumors,22%
same,ORR,"[5]; transversion-high (TH, smoking signature) tumors",56%
same,ORR,[5]; transversion-low (TL) tumors,17%
same,confirmed objective response rate (ORR),[5]; [7],63%
same,median PFS,[5]; [7],14.5 months
same,rate of durable clinical benefit (DCB),"[5]; discovery cohort, high nonsynonymous burden (above median of cohort)",Seventy-three
same,rate of durable clinical benefit (DCB),"[5]; discovery cohort, low mutation burden",13%
same,confirmed objective response rate (ORR),[5]; [8],0%
same,median PFS,[5]; [8],3.7 months
same,rate of DCB,[5]; high nonsynonymous mutation burden (>200) and some PD-L1 expression (weak/strong),91%
same,rate of DCB,[5]; low mutation burden and some degree of PD-L1 expression,10%
same,decrease in tumor burden,[5]; one patient (Study ID #9) with exceptional response,95%
same,duration of partial response,[5]; one tumor with very low burden (56 nonsynonymous mutations),8 months
same,median PFS,"[5]; overall set, high neoantigen burden",14.5 months
same,median PFS,"[5]; overall set, low neoantigen burden",3.5 months
same,rate of DCB,[5]; self-reported ever smokers,48%
same,rate of DCB,[5]; self-reported never-smokers,33%
same,tumors with no durable benefit (NDB),"[5]; tumors with ≥178 nonsynonymous mutations, both cohorts",5 of 18
same,median PFS,[5]; [9],not reached
same,rate of DCB,[5]; [9],83%
same,median PFS,[5]; [10],3.4 months
same,rate of DCB,[5]; [10],22%
same,rate of durable benefit,"[5]; validation cohort, tumors harboring ≥178 mutations",75%
same,rate of durable benefit,"[5]; validation cohort, tumors with <178 mutations",14%
same,rate of DCB,"[5]; weak PD-L1 expression, high nonsynonymous mutation burden",75%
same,rate of DCB,"[5]; weak PD-L1 expression, low mutation burden",11%
same,"Pneumonitis, patients","[6]; 411 melanoma patients, Trial 1, all grades",2.9%
same,"Colitis (including microscopic colitis), patients",[6]; [11],1%
same,"Hepatitis (including autoimmune hepatitis), patients",[6]; [11],0.5%
same,"Hyperthyroidism, patients",[6]; [11],1.2%
same,"Hypophysitis, patients",[6]; [11],0.5%
same,"Hypothyroidism, patients",[6]; [11],8.3%
same,"Colitis Grade 2, patients",[6]; Trial 1,0.2%
same,"Colitis Grade 3, patients",[6]; Trial 1,0.5%
same,"Hepatitis Grade 4, patients",[6]; Trial 1,0.2%
same,"Hyperthyroidism Grade 2, patients",[6]; Trial 1,0.5%
same,"Hyperthyroidism Grade 3, patients",[6]; Trial 1,0.2%
same,"Hypophysitis Grade 2, patients",[6]; Trial 1,0.2%
same,"Hypophysitis Grade 4, patients",[6]; Trial 1,0.2%
same,"Hypothyroidism Grade 3, patients",[6]; Trial 1,0.2%
same,"Pneumonitis Grade 2, patients",[6]; Trial 1,1.9%
same,"Pneumonitis Grade 3, patients",[6]; Trial 1,0.2%
same,"discontinuation of KEYTRUDA due to pneumonitis, patients",[6]; Trial 1,0.7%
same,median duration of colitis,[6]; Trial 1,2.6 months
same,median duration of hyperthyroidism,[6]; Trial 1,2.8 months
same,median duration of pneumonitis,[6]; Trial 1,4.9 months
same,median time to development of pneumonitis,[6]; Trial 1,5 months
same,"other immune-mediated adverse reactions, patients: exfoliative dermatitis, uveitis, arthritis, myositis, pancreatitis, hemolytic anemia, partial seizures, adrenal insufficiency",[6]; Trial 1,less than 1%
same,patients who received corticosteroids or discontinued KEYTRUDA for management of hypothyroidism,[6]; Trial 1,No patient
same,"permanent discontinuation of KEYTRUDA due to colitis, patients",[6]; Trial 1,0.2%
same,"permanent discontinuation of KEYTRUDA due to hyperthyroidism, patients",[6]; Trial 1,0.2%
same,"Nephritis, patients",[6]; all grades,0.7%
same,duration of hepatitis,[6]; case of Grade 4 hepatitis,1.1 months
same,"Grade 2 autoimmune nephritis, patients","[6]; human, in vivo",0.2%
same,duration of autoimmune nephritis,"[6]; human, in vivo",3.2 months
same,"most common adverse reactions, patients: fatigue, cough, nausea, pruritus, rash, decreased appetite, constipation, arthralgia, diarrhea","[6]; human, in vivo",> 20%
same,patients who fully recovered renal function,"[6]; nephritis, with high-dose corticosteroids",All three
same,"interstitial nephritis with renal failure, patients",[6]; one Grade 3 and one Grade 4,0.5%
same,pneumonitis completely resolved,[6]; patients with Grade 2-3 pneumonitis,seven of the nine
same,complete resolution of colitis,[6]; patients with colitis,All four
same,complete resolution of hepatitis,[6]; patients with hepatitis,Both
same,complete resolution of hyperthyroidism,[6]; patients with hyperthyroidism,All five
